Our source for the ΔH, ΔS and Kd values is patent US20230348572A1 (ROSALIND FRANKLIN INSTITUTE, published 2023).

The target of assay [1] is T1, SARS-CoV-2 spike glycoprotein ectodomain (prefusion-stabilized, trimeric) (SARS-CoV-2, UniProt P0DTC2 14-1208).
T1 construct: range 1-1208; also called spike protein; Spike ectodomain
As to the kind of experiment: ITC, Spike in the cell, H11-H4 in the syringe. (In general: In ITC the heat of successive injections is recorded.)

Assay [2] deals with T1, SARS-CoV-2 spike glycoprotein ….
Assay [3] has the same target. The assay can be described thus: ITC, nanobody titrated into trimeric Spike, 1:1 nanobody:monomer.
The target is the same in assay [4]. This is another data set of the same source.

Changes are numbered by the printed parent chain. Like-named read-outs stand apart in the source and are kept apart here.

B1: NbRBD_H11-H4 (VHH)
VHH: QVQLVESGGGLMQAGGSLRLSCAVSGRTFSTAAMGWFRQAPGKEREFVAAIRWSGGSAYYADSVKGRFTISRDKAKNTVYLQMNSLKYEDTAVYYCAQTHYVSYLLSDYATWPYDYWGQGTQVTVSS
notes: also called nanobody H11-H4
Regarding B1, the ΔH is -73 kJmol-1 in assay [1] and -74 kJmol-1 in assay [2]. Moreover, the results for the ΔS in assay [1] and in assay [2] were -103 Jmol-1K-1 and -107 Jmol-1K-1, respectively. In assay [3], the equilibrium dissociation constant (Kd) came out at 44 nM.

B2: NbRBD_H11-D4 (VHH)
VHH: B1 VHH with Q98R, H100E, Y101N, S103R, Y104S
notes: also called nanobody H11-D4
B2: in assay [4], the ΔH is -81.2 kJmol-1 and the ΔS is -136 Jmol-1K-1. In assay [3], this molecule had a Kd of 79 nM.

By Kd is commonly meant the free concentration of one partner at which half of the binding sites on the other are occupied at equilibrium, for simple one-to-one binding. A low value points to a tighter complex.
